Patent US20040170622A1, “Methods and compositions for modulating XBP-1 activity” (President and Fellows of Harvard College, priority 2002, published 2004)

Test system: UPR target genes
Test: UPR target gene induction by Tm in MEF-dn-XBP cells (Northern blot)
Format: cell-based
Conditions: 10 μg/ml Tm
Method: (A) The 5×ATF6GL3 reporter plasmid was cotransfected with either pCGNATF6α or XBP-u/s plasmids into MEF cells with or without the dominant negative XBP-1 expression plasmid. 100 ng DNA was used for each transfection except for pCDNA3.1, which was added to give 1 μg of DNA in total. Luciferase assays were performed as described in the legend to FIG. 18.(B) MEF and MEF-dn-XBP cells that stably express dominant negative XBP-1 protein were treated with 10 μg/ml Tm for the indicated time periods. Total RNAs were isolated and subjected to Northern blot analysis. The same blot was hybridized sequentially with BiP, CHOP, ERdj4, p58^ipk and ATF6α probes. Ethidium bromide staining of the gel before blotting is shown at the bottom as loading control.
293T and MEF cells derived from wild type and XBP-1^−/− embryos were cultured in DMEM supplemented with 10% fetal calf serum (Hyclone Laboratories). MEF-tet-off cells (Clontech) were maintained in the same media with the addition of 100 μg/ml G418 and 1 μg/ml doxycycline. XBP-1s inducible cells were obtained by transfecting MEF-tet-off cells with the TREhyg-XBP-1s plasmid and then selecting in the presence of 400 μg/ml hygromycin B. Several clones were tested for doxycycline-dependent XBP-1s expression, and one was selected for further experiments. MEF-dn-XBP cells were generated by transfecting MEF-tet-off cells with the TREhyg-dn-XBP plasmid. […]

B1: dn-XBP: dominant negative XBP-1 containing the N-terminal 188 aa, lacking transactivation domain, retaining leucine zipper (protein)
chain: MVVVAAAPSAATAAPKVLLLSGQPASGGRALPLMVPGPRAAGSEASGTPQARKRQRLTHLSPEEKALRRKLKNRVAAQTARDRKKARMSELEQQVVDLEEENHKLQLENQLLREKTHGLVVENQELRTRLGMDTLDPDEVPEVEAKGSGVRLVAGSAESAAGAGPVVTSPEHLPMDSDTVASSDSESD
In the case of B1, the “induction of CHOP by Tm” value is reported as “suppressed the induction of CHOP” and the “induction of ERdj4 and p58ipk by Tm” value is reported as “significantly suppressed the induction of XBP-1 target genes, ERdj4 and p58^ipk”.
